# Test results taken from patent US20230272051A1 (CENTIVAX, published 2023).
# Numbering of substitutions follows the chain as printed.
# B1: COVID19_P13_G12 (scFv, V domains shown)
# VH: QVQLVQSGAEVKKPGSSVKVSCKASGYTFINYEIHWVRQAPGQGLEWMGGITPIFGTANYAQKFQGRVTITADESTSTAYMELSSLRSEDTAVYYCARDTVMGGMDVWGQGTLVTVSS
# VL: SSYVLTQPPSVSVAPGKTARITCGGNNIGSKSVHWYQQKPGQAPVLVIYYDSDRPSGIPERFSGSNSGNTATLTISRVEAGDEADYYCQVWDSSSDYVFGGGTKLTVLA
# B2: COVID19_P01_E12 (scFv, V domains shown)
# VH: QVQLVQSGAEVKKPGSSVKVSCKASGYTFTTYDINWVRQAPGQGLEWMGWINPNSGGTNYAQKFQGRVTITADESTSTAYMELSSLRSEDTAVYYCARDTYWGGMDVWGQGTLVTVSS
# VL: B1 VL with Y50D, D96F
# B3: COVID19_P13_C07 (scFv, V domains shown)
# VH: QVQLVQSGAEVKKPGSSVKVSCKASGGTFSRYDINWVRQAPGQGLEWMGIINPSGGSTTYAQKFQGRVTITADESTSTAYMELSSLRSEDTAVYYCAHDTVMGGMDVWGQGTLVTVSS
# VL: B1 VL with D96Y
# B4: COVID19_P14_D11 (scFv, V domains shown)
# VH: QVQLVQSGAEVKKPGSSVKVSCKASGYTFNRFAMTWVRQAPGQGLEWMGTINPSGGSTIYTQRFQGRVTITADESTSTAYMELSSLRSEDTAVYYCGHDTVMGGMGEWGQGTLVTVSS
# VL: B1 VL with V90S, W91T
# B5: COVID19_P14_B07 (scFv, V domains shown)
# VH: B2 VH with T31S, D33G, N35S, R98V, D99E, Y101V, W102M, M105F, D106T
# VL: B1 VL
# B6: COVID19_P01_H10 (scFv, V domains shown)
# VH: QVQLVQSGAEVKKPGSSVKVSCKASGGTFGNYPITWVRQAPGQGLEWMGIIYPGDSDARYRPSFQGRVTITADESTSTAYMELSSLRSEDTAVYYCARDFSMGGMDVWGQGTLVTVSS
# VL: B1 VL with S93D
# notes: also called COVID19_PO1_H10
# B7: COVID19_P01_B08 (scFv, V domains shown)
# VH: B3 VH with R31N, Y32F, D33A, N35T, I50V, S54G, K63T, H98R
# VL: B1 VL
# B8: COVID19_P13_B05 (scFv, V domains shown)
# VH: B2 VH with T31S, Y101F, W102F
# VL: B1 VL with D96Y
# B9: COVID19_P01_E06 (scFv, V domains shown)
# VH: QVQLVQSGAEVKKPGSSVKVSCKASGCTFTRFTMHWVRQAPGQGLEWMGGITPIFGITNYAQKFQGRVTITADESTSTAYMELSSLRSEDTAVYYCAHDTVMGGMEEWGQGTLVTVSS
# VL: B1 VL with S95N
# B10: COVID19_P14_D07 (scFv, V domains shown)
# VH: B1 VH with I30S, N31S, Y32F, E33Y, T52I, T57E, N59E, Q62H, R98M, D99E
# VL: B1 VL
# B11: COVID19_P14_B08 (scFv, V domains shown)
# VH: QVQLVQSGAEVKKPGSSVKVSCKASGYTFTSYYVHWVRQAPGQGLEWMGGILPILGTPHYAQKFQGRVTITADESTSTAYMELSSLRSEDTAVYYCALETVMGGMTAWGQGTLVTVSS
# VL: B1 VL
# B12: COVID19_P02_D10 (scFv, V domains shown)
# VH: B1 VH with T28M, I30T, N31E, Y32F, E33Y, I34M, T52I, I54V, F55S, D99E
# VL: B1 VL
# B13: COVID19_P01_G05 (scFv, V domains shown)
# VH: B1 VH with I30T, N31D, Y32F, E33Y, T52I, R98L, D99E
# VL: B1 VL with D96H
# B14: COVID19_P13_H02 (scFv, V domains shown)
# VH: B1 VH with I30T, N31G, Y32F, E33Y, I34M, H35Q, F55L, D99E, T100I
# VL: B1 VL with V90S
# B15: COVID19_P14_G01 (scFv, V domains shown)
# VH: B1 VH with T28N, E33Y, I34L, T57I, D99E
# VL: B1 VL with N27K, S94G
# B16: COVID19_P13_D01 (scFv, V domains shown)
# VH: B1 VH with I30S, N31D, Y32F, E33D, H35N, T52I, A97G, R98M, D106T, V107S
# VL: B1 VL with S95H
# B17: COVID19_P02_H04 (scFv, V domains shown)
# VH: B1 VH with I30S, N31S, Y32F, E33H, H35N, T57I, R98L, D99E
# VL: B1 VL with V90S, S95G
# B18: COVID19_P14_E07 (scFv, V domains shown)
# VH: B1 VH with E33D, H35N
# VL: B1 VL with S94H
# B19: COVID19_P01_B06 (scFv, V domains shown)
# VH: B11 VH with T30S, S31A, V34M, L52T, I54L, L55F, H59S, M105V, T106G, A107V
# VL: B1 VL with G81V
# B20: COVID19_P02_C07 (scFv, V domains shown)
# VH: B1 VH with I30S, N31S, E33Y, T52I, T57E, N59E, Q62H, R98M, D99E
# VL: B1 VL
# B21: COVID19_P14_C12 (scFv, V domains shown)
# VH: B2 VH with W50I, N52D, N54I, S55G, G57T, Y101V, W102G, G103F
# VL: B1 VL with Y50D, D96L
# B22: COVID19_P13_B12 (scFv, V domains shown)
# VH: B1 VH with I30T, N31D, Y32F, E33H, I34M, T52I, R98L, D99E
# VL: B1 VL
# B23: COVID19_P13_D11 (scFv, V domains shown)
# VH: B1 VH with T28S, I30N, N31A, Y32F, E33Y, T52I, R98L, D99E
# VL: B1 VL with S93G
# B24: COVID19_P01_C09 (scFv, V domains shown)
# VH: B1 VH with I30T, N31S, Y32F, E33D, T52I, R98Y, D99E
# VL: B1 VL with D96Y
# B25: COVID19_P14_C01 (scFv, V domains shown)
# VH: B1 VH with I30S, N31D, Y32F, E33Y, I34L, R98M, D99E
# VL: B1 VL
# B26: COVID19_P14_F08 (scFv, V domains shown)
# VH: B1 VH with I30T, N31A, Y32F, E33Y, T52I, F55S, V68A, D99E, T100V
# VL: B1 VL with S94T
# B27: COVID19_P01_H04 (scFv, V domains shown)
# VH: B1 VH with T28P, I30S, N31S, H35N, R98D, D99E
# VL: B1 VL with S95N
# B28: COVID19_P14_E01 (scFv, V domains shown)
# VH: B1 VH with I30T, N31S, E33Y, I34M, R98V, D99E, D106Q, V107M
# VL: B1 VL
# B29: COVID19_P13_A08 (scFv, V domains shown)
# VH: B1 VH with E33D, H35N
# VL: B1 VL with S94R
# Target: T1, SARS-CoV-2 Receptor Binding Domain (RBD) protein (SARS-CoV-2, UniProt P0DTC2 319-541)
# T1 construct: also called Sars-Cov-2 (COV2)
# Assay: SPR (Carterra LSA); scFv captured by anti-V5, RBD as analyte
Binder,Kd,koff,kon
B1,6.48 nM,0.00088 s⁻¹,140000 M⁻¹ s⁻¹
B2,32.5 nM,0.0108 s⁻¹,331000 M⁻¹ s⁻¹
B3,41.5 nM,0.0095 s⁻¹,230000 M⁻¹ s⁻¹
B4,48.2 nM,0.00987 s⁻¹,205000 M⁻¹ s⁻¹
B5,34.2 nM,0.0131 s⁻¹,383000 M⁻¹ s⁻¹
B6,39.3 nM,0.0148 s⁻¹,377000 M⁻¹ s⁻¹
B7,33.8 nM,0.0149 s⁻¹,442000 M⁻¹ s⁻¹
B8,21.9 nM,0.0037 s⁻¹,170000 M⁻¹ s⁻¹
B9,48.7 nM,0.0118 s⁻¹,242000 M⁻¹ s⁻¹
B10,6.08 nM,0.00232 s⁻¹,381000 M⁻¹ s⁻¹
B11,30.8 nM,0.0115 s⁻¹,374000 M⁻¹ s⁻¹
B12,26.4 nM,0.0029 s⁻¹,110000 M⁻¹ s⁻¹
B13,2.89 nM,0.00123 s⁻¹,427000 M⁻¹ s⁻¹
B14,40.6 nM,0.0084 s⁻¹,210000 M⁻¹ s⁻¹
B15,8.45 nM,0.000842 s⁻¹,99700 M⁻¹ s⁻¹
B16,3.14 nM,0.00035 s⁻¹,110000 M⁻¹ s⁻¹
B17,31.9 nM,0.00781 s⁻¹,245000 M⁻¹ s⁻¹
B18,5.67 nM,0.000778 s⁻¹,137000 M⁻¹ s⁻¹
B19,28 nM,0.0122 s⁻¹,437000 M⁻¹ s⁻¹
B20,4.34 nM,0.00279 s⁻¹,642000 M⁻¹ s⁻¹
B21,7.8 nM,0.000725 s⁻¹,93000 M⁻¹ s⁻¹
B22,32.7 nM,0.0049 s⁻¹,150000 M⁻¹ s⁻¹
B23,35 nM,0.011 s⁻¹,310000 M⁻¹ s⁻¹
B24,18.2 nM,0.0097 s⁻¹,532000 M⁻¹ s⁻¹
B25,12.1 nM,0.00191 s⁻¹,158000 M⁻¹ s⁻¹
B26,25 nM,0.00283 s⁻¹,113000 M⁻¹ s⁻¹
B27,0.95 nM,0.00056 s⁻¹,590000 M⁻¹ s⁻¹
B28,10.7 nM,0.000819 s⁻¹,76800 M⁻¹ s⁻¹
B29,10 nM,0.00046 s⁻¹,46000 M⁻¹ s⁻¹

# Target: T1, SARS-CoV-2 Receptor Binding Domain …
# Assay: SPR (Carterra LSA)
row,Binder,Kd
1,B1,< 50 nM
2,B5,< 50 nM
3,B6,< 50 nM
4,B7,< 50 nM
5,B8,< 50 nM
6,B10,< 50 nM
7,B11,< 50 nM
8,B12,< 50 nM
9,B13,< 50 nM
10,B14,< 50 nM
11,B15,< 50 nM
12,B16,< 50 nM
13,B18,< 50 nM
14,B19,< 50 nM
15,B20,< 50 nM
16,B22,< 50 nM
17,B23,< 50 nM
18,B24,< 50 nM
19,B25,< 50 nM
20,B26,< 50 nM
21,B27,< 50 nM
22,B28,< 50 nM
23,B29,< 50 nM
